The target of this experiment is IGF1 (Insulin-like Growth Factor 1) (UniProt P05019). Put plainly: IC50 (uM) column of the drawn table; phage clone of the F(ab')2 L3/H3 library on the 4D5 template, IC50 analysed as in Sidhu et al. (P-0517); source oligo (DVK)7.

B1: SEQ ID NO 69 (antibody, part only; not given: template light chain, V domains shown, part only)
VH: EVQLVESGGGLVQPGGSLRLSCAASGFNIKDTYIHWVRQAPGKGLEWVARIYPTNGYTRYADSVKGRFTISADTSKNTAYLQMNSLRAEDTAVYYCSRSRGWWTAAMDVWGQGTLVTVSS
The IC50 is the concentration at which inhibition is half-maximal. B1 yielded a half-maximal inhibitory concentration (IC50) of 0.3 µM.

B2: SEQ ID NO 70 (antibody, part only; not given: template light chain, V domains shown, part only)
VH: EVQLVESGGGLVQPGGSLRLSCAASGFNIKDTYIHWVRQAPGKGLEWVARIYPTNGYTRYADSVKGRFTISADTSKNTAYLQMNSLRAEDTAVYYCSRASRDWYGAMDVWGQGTLVTVSS
Consider B2, for which the IC50 amounted to 15 µM.

The record behind these values is patent US20050079574A1.
